# Reference: patent US20220048967A1 (published 2022)
# Columns and labels:
# [1] = molecular target: Pro-Link-tagged Human GLP-1R (human, UniProt P43220 24-463); experiment: cell-based or functional assay
# human GLP-1 receptor = human GLP-1 receptor (human, UniProt P43220 24-463); experiment: cell-based or functional assay
Binder,hGLP1R B-Arrestin2 % Top [1] [%],hGLP1R B-Arrestin2 Rel EC50 [1] [nM],hGLP1R GTPgS % Top (human GLP-1 receptor) [%],hGLP1R GTPgS Rel EC50 (human GLP-1 receptor) [nM]
"XXEGTFTSDYSIXLDXKAQXEFIEYLIAGGPSSGAPPPS (D-Tyr1, Aib2, αMeL13, Orn16, K17 conjugated to (2-[2-(2-Amino-ethoxy)-ethoxy]-acetyl)2-(γ-Glu)-CO-(CH2)16-CO2H, Aib20, C-terminal amide (NH2)) [Example 368]",21.3,47.9,68.9,0.495
"XXEGTFTSDYSIXLDXKAQXEFIEXLIEGGPSSGAPPPS (D-Tyr1, Aib2, αMeL13, Orn16, K17 conjugated to (2-[2-(2-Amino-ethoxy)-ethoxy]-acetyl)2-(γ-Glu)-CO-(CH2)18-CO2H, Aib20, αMeY25, C-terminal amide (NH2)) [Example 380]",35,13.7,66.8,0.188
"XXEGTFTSDYSIXLDXKAQXEFIXYLIEGGPSSGAPPPS (D-Tyr1, Aib2, αMeL13, Orn16, K17 conjugated to (2-[2-(2-Amino-ethoxy)-ethoxy]-acetyl)2-(γ-Glu)-CO-(CH2)18-CO2H, Aib20, D-Glu24, C-terminal amide (NH2)) [Example 355]",18.3,363,50.6,1.76
"XXEGTFTSDYSIXLDKKAQXEFIXYLIEGGPSSGAPPPS (D-Tyr1, Aib2, αMeL13, K17 conjugated to (2-[2-(2-Amino-ethoxy)-ethoxy]-acetyl)2-(γ-Glu)-CO-(CH2)18-CO2H, Aib20, D-Glu24, C-terminal amide (NH2)) [Example 353]",23,559,63.1,1.96
"XXEGTFTSDYSIXLDKKAQXAFIEXLIAGGPSSGAPPPS (D-Tyr1, Aib2, αMeL13, K17 conjugated to (2-[2-(2-Amino-ethoxy)-ethoxy]-acetyl)2-(γ-Glu)-CO-(CH2)16-CO2H, Aib20, αMeY25, C-terminal amide (NH2)) [Example 376]",25.6,12.3,72.6,0.326
"XXEGTFTSDYSIXLDKKAQXAFIXYLIAGGPSSGAPPPS (D-Tyr1, Aib2, αMeL13, K17 conjugated to (2-[2-(2-Amino-ethoxy)-ethoxy]-acetyl)2-(γ-Glu)-CO-(CH2)18-CO2H, Aib20, D-Glu24, C-terminal amide (NH2)) [Example 352]",17.4,4.21,63.5,0.552
"XXEGTFTSDYSIXLDKKAQXAFIEXLIAGGPSSGAPPPS (D-Tyr1, Aib2, αMeL13, K17 conjugated to (2-[2-(2-Amino-ethoxy)-ethoxy]-acetyl)-(γ-Glu)-CO-(CH2)18-CO2H, Aib20, αMeY25, C-terminal amide (NH2)) [Example 373]",22.9,9.54,65.6,0.336
"XXEGTFTSDYSIXLDXKAQXAFIEXLIAGGPSSGAPPPS (D-Tyr1, Aib2, αMeL13, Orn16, K17 conjugated to (2-[2-(2-Amino-ethoxy)-ethoxy]-acetyl)2-(γ-Glu)-CO-(CH2)18-CO2H, Aib20, αMeY25, C-terminal amide (NH2)) [Example 366]",21.2,5.57,67.6,0.409
"XXEGTFTSDYSIXLDXKAQXEFIEYLIAGGPSSGAPPPS (D-Tyr1, Aib2, αMeL13, Orn16, K17 conjugated to (2-[2-(2-Amino-ethoxy)-ethoxy]-acetyl)-(γ-Glu)-CO-(CH2)18-CO2H, Aib20, C-terminal amide (NH2)) [Example 371]",21.7,14.2,62.5,0.27
"XXEGTFTSDYSIXLDXKAQXEFIEXLIAGGPSSGAPPPS (D-Tyr1, Aib2, αMeL13, Orn16, K17 conjugated to (2-[2-(2-Amino-ethoxy)-ethoxy]-acetyl)2-(γ-Glu)-CO-(CH2)16-CO2H, Aib20, αMeY25, C-terminal amide (NH2)) [Example 375]",24.2,11.4,70.4,0.419
"XXEGTFTSDYSIXLDKKAQXEFIEXLIAGGPSSGAPPPS (D-Tyr1, Aib2, αMeL13, K17 conjugated to (2-[2-(2-Amino-ethoxy)-ethoxy]-acetyl)2-(γ-Glu)-CO-(CH2)18-CO2H, Aib20, αMeY25, C-terminal amide (NH2)) [Example 292]",29,7.74,71.5,0.429
"XXEGTFTSDYSIXLDKKAQXEFIEXLIAGGPSSGAPPPS (D-Tyr1, Aib2, αMeL13, K17 conjugated to (2-[2-(2-Amino-ethoxy)-ethoxy]-acetyl)-(γ-Glu)-CO-(CH2)18-CO2H, Aib20, αMeY25, C-terminal amide (NH2)) [Example 372]",32.9,9.81,69.1,0.379
"YXEGTFTSDYSIXLDKKAQXEFIEXLIAGGPSSGAPPPS (Aib2, αMeL13, K17 conjugated to (2-[2-(2-Amino-ethoxy)-ethoxy]-acetyl)2-(γ-Glu)-CO-(CH2)18-CO2H, Aib20, αMeY25, C-terminal amide (NH2)) [Example 367]",70.6,6.66,89.7,0.289
"XXEGTFTSDYSIXLDKKAQXEFIEXLIAGGPSSGAPPPS (D-Tyr1, Aib2, αMeL13, K17 conjugated to (2-[2-(2-Amino-ethoxy)-ethoxy]-acetyl)2-(γ-Glu)-CO-(CH2)16-CO2H, Aib20, αMeY25, C-terminal amide (NH2)) [Example 374]",34.7,21.8,67.1,0.345
"XXEGTFTSDYSIXLDXKAQXEFIEYLIAGGPSSG (D-Tyr1, Aib2, αMeL13, Orn16, K17 conjugated to (2-[2-(2-Amino-ethoxy)-ethoxy]-acetyl)2-(γ-Glu)-CO-(CH2)18-CO2H, Aib20, C-terminal amide (NH2)) [Example 370]",23,9.9,63.7,0.428
